Results: publication PMC6118392, “VapC proteins from Mycobacterium tuberculosis share ribonuclease sequence specificity but differ in regulation and toxicity” (PLoS ONE, 2018)

T1: VapB1;VapC1 (UniProt P0CW29+P9WFC1)
T1 sequence 1: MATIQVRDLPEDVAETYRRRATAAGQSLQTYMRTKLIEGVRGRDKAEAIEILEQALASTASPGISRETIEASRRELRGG
T1 sequence 2: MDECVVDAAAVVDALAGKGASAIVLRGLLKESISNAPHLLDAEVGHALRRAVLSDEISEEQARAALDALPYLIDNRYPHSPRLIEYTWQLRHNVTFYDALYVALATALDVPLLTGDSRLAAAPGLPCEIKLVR

T2: VapB29;VapC29 (UniProt P9WJ37+P9WF79)
T2 sequence 1: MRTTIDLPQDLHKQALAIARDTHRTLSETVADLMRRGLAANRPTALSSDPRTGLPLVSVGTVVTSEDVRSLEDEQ
T2 sequence 2: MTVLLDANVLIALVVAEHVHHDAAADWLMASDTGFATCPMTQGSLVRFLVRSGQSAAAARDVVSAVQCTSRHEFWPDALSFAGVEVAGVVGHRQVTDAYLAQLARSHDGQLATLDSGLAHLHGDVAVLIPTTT

T3: VapB29;VapC29 (Mycobacterium tuberculosis …, UniProt P9WJ37;P9WF79 1-75;1-133, |)
T3 sequence 1: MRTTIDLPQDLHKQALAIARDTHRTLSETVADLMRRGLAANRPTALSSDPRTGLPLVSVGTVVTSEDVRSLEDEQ
T3 sequence 2: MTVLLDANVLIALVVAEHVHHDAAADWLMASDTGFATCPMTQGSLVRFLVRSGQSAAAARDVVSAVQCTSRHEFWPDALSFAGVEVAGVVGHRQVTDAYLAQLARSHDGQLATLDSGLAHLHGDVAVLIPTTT


What was measured:
Assay in all cases: EMSA
VapB1;VapC1 = target: T1, VapB1;VapC1
VapB29;VapC29 [1] = target: T2, VapB29;VapC29
VapB29;VapC29 [2] = target: T3, VapB29;VapC29; conditions: protein: recombinant;recombinant; tags: ;C-terminal His; label: 3' DIG-ddUTP; blunt

| Molecule | binding (VapB1;VapC1) | binding (VapB29;VapC29 [1]) | binding result (VapB29;VapC29 [2]) |
| --- | --- | --- | --- |
| AGCGGAGTTCACCGGCTAAGAATGCCGGCTTATCCACCGGGCGTTTCGGCGGCATCGATGGCCTTCTCTAACCGGTCGAGCACCGCGCGCAGATCGGCCAG (double strand) [vapBC1 promoter 101 bp] | no binding | – | – |
| CATGGGAATACGATACCAATGGCTTCCCACTCAGGTGCGGAAGTCGACTCACCGCCGTTACCACGACCCCGACGACCACACCGTCAGCTGCGGCGCGGCGTGGCGACTATTGGTCGCTAGTGTCGTGCTCCCGATTCGGGTCCTTTGTATCTGATGACGT (double strand) [vapBC27 promoter 160 bp] | – | no binding | – |
| GTGGATAAGCCGGCATTCTTAGCCGGTGAACTCCGCTATGGCTACCATTCAAGTTCGGGATTTGCCCGAAGATGTCGCCGAAACCTATCGACGGCGCGCCACCGCAGCGGGGCAGTCGCTGCAGACGTATATGCGCACCAAGCTCATCGA (double strand) [vapBC1 promoter 150 bp] | no binding | no binding | – |
| Oligo 5 (50 bp vapBC29 promoter, control) (dsDNA) DNA 1: GGTGAGCGTCGGCGCGCGCATCACGATGCAGCGATGTTAGGATGAGGCGG DNA 2: CCGCCTCATCCTAACATCGCTGCATCGTGATGCGCGCGCCGACGCTCACC | – | – | binds |
